Measurements reported in patent publication US20130072665A1 (Amgen, published 2013).
Read-outs that look alike come from different tables or passages of the source.

T1: PCSK9 V domain (450-692 of SEQ ID NO: 3) (human, UniProt Q8NBP7 450-692)
T1 construct: also called v-domain PCSK9
T1 chain: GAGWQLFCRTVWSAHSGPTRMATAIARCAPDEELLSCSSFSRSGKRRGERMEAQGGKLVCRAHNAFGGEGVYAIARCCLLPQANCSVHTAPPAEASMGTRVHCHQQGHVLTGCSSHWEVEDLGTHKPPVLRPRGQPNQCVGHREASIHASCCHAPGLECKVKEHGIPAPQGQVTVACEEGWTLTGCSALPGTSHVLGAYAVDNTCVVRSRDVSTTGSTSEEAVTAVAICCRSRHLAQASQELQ


Columns and labels:
Experiment in all cases: domain binding ELISA (coated antibody captures the PCSK9 form; OD650)
[1] = molecular target: T2, PCSK9 ProCat (31-449 of SEQ ID NO: 3) (human, UniProt Q8NBP7 27-449)
T2 construct: From PCSK9 449TEV after rTEV cleavage: GAMG-PCSK9 (31-449)-ENLYFQ; Written as one chain; autocatalysis between 152 and 153 splits pro-domain and catalytic domain; also called procat PCSK9; PCSK9 31-449
Procedure: (§1) Clear, 96 well maxisorp plates (Nunc) were coated overnight with 2 ug/ml of various anti-PCSK9 antibodies diluted in PBS. Plates were washed thoroughly with PBS/0.05% Tween-20 and then blocked for two hours with 3% BSA/PBS.

[2] = molecular target: T1, PCSK9 V domain (450-692 of SEQ ID NO: 3)
Procedure: as §1

[3] = molecular target: T2, PCSK9 ProCat (31-449 of SEQ ID NO: 3); remark: listed apart in the source
Procedure: as §1

[4] = molecular target: T1, PCSK9 V domain (450-692 of SEQ ID NO: 3)
Procedure: as §1

binding result [1] | binding result [2] | binding result [3] | binding result [4] | Binder
binds | no binding | – | – | 30B9 (antibody, V domains shown) VH: QVQLVQSGAEVKKPGASVKVSCKASGYPLTSYGISWVRQAPGQGLEWMGWISAYNGNTNYAQKVQGRVTMTTDTSTSTVYMELRSLRSDDTAVYYCARGYGMDVWGQGTTVTVSS VL: QSALTQPASVSGSPGQSITISCTGTSSDVGGYNSVSWYQQHPGKPPKLMIYEVSNRPSGVSNRFSGSKSGNTASLTISGLQAEDEADYFCSSYTSTSMVFGGGTKLTVL
– | no binding | – | – | 17C2.1 (antibody, V domains shown, subclone) VH: QVQLVQSGAEVKKPGASVKVSCKASGYSFTSYGISWVRQAPGQGLEWMGWVSAYNGNTNYAQKFQGRVTMTTDTSTSTAYMELRSLRSDDTAVYYCARGYVMDVWGQGTTVTVSS VL: QSALTQPASVFGSPGQSITISCTGTSSDVGAYNSVSWYQQHPGKAPKRMIYEVSNRPSGVSNRFSGSKSGNTASLTISGLQAEDEADYYCSSYTSTNMVFGGGTKLTVL
– | no binding | – | – | 26E10.1 (antibody, V domains shown, subclone) VH: QVQLVQSGAEVKKPGASVKVSCKASGYTLTSYGISWVRQAPGQGLEWMGWVSFYNGNTNYAQKLQGRGTMTTDPSTSTAYMELRSLRSDDTAVYYCARGYGMDVWGQGTTVTVSS VL: QSALTQPASVSGSPGQSITISCTGTSSDVGGYNSVSWYQQHPGKAPKLMIYEVSNRPSGVFNRFSGSKSGNTASLTISGLQAEDEADYYCNSYTSTSMVFGGGTKLTVL
– | – | binds | no binding | 3B6 (antibody, V domains shown) VH: QVQLVQSGAEVKKPGASVKVSCKASGYTFTSYGISWVRQAPGQGLEWMGWISTYNGNTNYAQKVQGRVTMTTDTSTSTAYMELRSLRSDDTAVYYCARGYTRDYWGQGTLVTVSS VL: QPVLTQPLFASASLGASVTLTCTLSSGYSSYEVDWYQQRPGKGPRFVMRVDTGGIVGSKGEGIPDRFSVLGSGLNRYLTIKNIQEEDESDYHCGADHGSGTNFVVVFGGGTKLTVL
– | – | binds | no binding | 20D10 (antibody, V domains shown) VH: QIQLVQSGAEVKKPGASVKVSCKASGYPLTSYGISWVRQAPGQGLEWMGWISAYNGNTNYAQKVQGSVTMTTDTSTSTVYMELRSLRSDDTAVYYCARGYGMDVWGQGTTVTVSS VL: QSALTQPASVSGSPGQSITISCTGTSSDVGGYNSVSWYQQYPGKPPKLKIYEVSNRPSGVSNRFSGSKSGNTASLTISGLQAEDEADYFCSSYTSTSMVFGGGTKLTVL
– | – | binds | no binding | 31D1 (antibody, V domains shown) VH: QIQLVQSGAEVKKPGASVKVSCKASGYTLTSYGISWVRQAPGQGLEWMGWISFYNGNTNYAQKVQGRVTMTTDTSTSTVYMELRSLRSDDTAVYFCARGYGMDVWGQGTTVTVSS VL: QSALTQPASVSGSPGQSITISCTGTSSDVGGYNSVSWYQQHPGKPPKLMIYEVSNRPSGVSNRFSGSKSGNTASLTISGLQAEDEADYFCSSYTSTSMVFGGGTKLAVL
binds | no binding | – | – | 27E7 (antibody, V domains shown) VH: QVQLVQSGAEVKKPGASLKVSCKASGYSLTSYGISWVRQAPGQGLEWMGWISAYNGNTNYAQKVQGRVTMTTDTSTSTVYMEVRSLRSDDTAVYYCARGYGMDVWGQGTTVTVSS VL: QSALTQPASVSGSPGQSITISCTGTSSDVGGYNSVSWYQQHPGKPPKLMIYEVSNRPSGVSNRFSGSKSGNTASLTISGLQAEDEADYFCSSYTSTSMVFGGGTKLTVL
– | – | binds | no binding | 23G1 (antibody, V domains shown) VH: QVQLVQSGAEVKKPGASVKVSCKASGYTLTSYGISWVRQAPGQGLEWMGWVSFYNGNTNYAQKLQGRGTMTTDPSTSTAYMELRSLRSDDTAVYYCARGYGMDVWGQGTTVTVSS VL: QSALTQPASVSGSPGQSITISCTGTSSDVGGYNSVSWYQQHPGKAPKLMIYEVTNRPSGVSNRFSGSKSGNTASLTISGLQAEDEADYYCNSYTSTSMVFGGGTKLTVL
binds | no binding | – | – | 19H9 (antibody, V domains shown, also called 19H9.2) VH: QVQLVQSGAEVKKPGASVKVSCKASGYALTSYGISWVRQAPGQGLEWMGWISAYNGNTNYAQKVQGRVTMTTDTSTSTVYMELRSLRSDDTAVYYCARGYGMDVWGQGTTVTVSS VL: QSALTQPASVSGSPGQSITISCTGTNSDVGGYNSVSWYQQHPGKPPKLMIYEVSNRPSGISNRFSGSKSGNTASLTISGLQAEDEADYFCSSYTSTSMVFGGGTKLTVL
binds | no binding | – | – | 27H5 (antibody, V domains shown) VH: QVQLVQSGAEVKRPGASVKVSCKASGYTLTSYGISWVRQAPGQGLEWMGWISVYNGNTNYAQKVQGRVTMTTDTSTSTVYMELRSLSSDDTAVYYCARGYGMDVWGQGTTVTVSS VL: QSALTQPASVSGSPGQSITISCTGTSSDVGGYNSVSWYQQHPGKPPKLMIYEVSNRPSGVSIRFSGSKSGNTASLTISGLQAEDEADYFCSSYTSTSMVFGGGTKLTVL
– | – | binds | no binding | 22E2 (antibody, V domains shown) VH: QVQLVESGGGVVQPGRSLRLSCAASGFTFSSFGMHWVRQAPGKGLEWVALIWNDGSNKYYADSVKGRFTISRDNSKNTLYLQMNSLRAEDTAVYYCARAIAALYYYYGMDVWGQGTTVTVSS VL: QSVLTQPPSVSAAPGQKVTISCSGSSSNIGNNFVSWYQQLPGTAPKLLIYDYNKRPSGIPDRFSGSKSGTSATLGITGLQTGDEADYYCGTWDSSLSGYVFGTGTRVTVL
no binding | – | – | – | 13B5 (antibody, V domains shown) VH: EVQLLESGGGLVQPGGSLRLSCAASGFTFSSYAMSWVRQAPGKGLEWVSTISGSGGRTYYADSVKGRFTISRDNSKNTLYLQMNSLRAEDTAVYYCAKEVGSPFDYWGQGTLVTVSS VL: QSVLTQPPSVSAAPGQKVTISCSGSNSNIGNNYVSWYQQLPGTAPKLLIYDNNKRPSGIPDRFSGSNSGTSATLGITGLQTGDEADYYCGTWDSSLSAVVFGGGTKLTVL
– | – | binds | no binding | 28B12 (antibody, V domains shown) VH: QVQLVESGGGVVQPGRSLRLSCAASGFTFSSFGMHWVRQAPGKGLEWVALIWNDGSNKYYADSVKGRFTISRDNSKNTLYLQMNSLRAEDTAVYYCARAIAALYYYYGMDVWGHGTTVTVSS VL: QSVLTQPPSVSAAPGQKVTISCSGSSSNIGNNFVSWYQQLPGTAPKLLIYDYNKRPSGIPDRFSGSKSGTSATLGITGLQTGDEADYYCGTWDSSLSGYVFGTGTRVTVL
– | – | – | no binding | 16F12 (antibody, V domains shown, lambda light chain) VH: QVHLVESGGGVVQPGRSLRLSCAASGFTFNSFGMHWVRQAPGKGLEWVALIWSDGSDEYYADSVKGRFTISRDNSKNTLYLQMNSLRAEDTAVYYCARAIAALYYYYGMDVWGQGTTVTVSS VL: QSVLTQPPSVSAAPGQKVTISCSGSSSNIGNNFVSWYQQLPGTAPKLLIYDYNKRPSGIPDRFSGSKSGTSATLGITGLQTGDEADYYCGTWDSSLSAYVFGTGTRVTVL
– | – | binds | no binding | 27A6 (antibody, V domains shown) VH: QVHLVESGGGVVQPGRSLRLSCAASGFTFNSFGMHWVRQAPGKGLEWVALIWSDGSDKYYADSVKGRFTISRDNSKNTLYLQMNSLRAEDTAVYYCARAIAALYYYYGMDVWGQGTTVTVSS VL: QSVLTQPPSVSAAPGQKVTISCSGSSSNIGNNFVSWYQQFPGTAPKLLIYDYNKRPSGIPDRFSGSKSGTSATLGITGLQTGDEADYYCGTWDSSLSSYVFGTGTRVTVL
– | – | binds | no binding | 28D6 (antibody, V domains shown) VH: QVQLVESGGGVVQPGRSLRLSCAASGFTFSSFGMHWVRQAPGKGLEWVALIWNDGSNKYYADSVKGRFTISRDNSKNTLYLQMNSLRAEDTAVYYCARAIAALYYYYGMDVWGQGTTVTVSS VL: QSVLTQPPTVSAAPGQKVTISCSGSSSNIGNNFVSWYQQLPGTAPKLLIYDYNKRPSGIPDRFSGSKSGTSATLGITGLQTGDEADYYCGTWDSSLSGYVFGTGTRVTVL
– | – | – | no binding | 31G11 (antibody, V domains shown) VH: QVQLVESGGGVVQPGRSLRLSCAASGFTFRSYGMHWVRQAPGKGLEWVALIWHDGSNTYYVDSVKGRFTISRDNSKNTLYLQMNSLRAEDTAVYYCARGIAVAYYYYGMDVWGQGTTVTVSS VL: QSVLTQPPSVSAAPGQKVTISCSGSSSNIGNNFVSWYQQLPGTAPKLLIYDSNKRPSGIPDRFSGSKSGTSATLDITGLQTGDEADYYCGTWDSSLSAYVFGTGTKVTVL
– | no binding | – | – | 31B12 (antibody, V domains shown) VH: QVQLVESGGGVVQPGRSLRLSCAASGFTFSSYGMHWVRQAPGKGLEWVAIIWYDGSNKYYADSVKGRFTISRDNSKNTLYLQMNSLRAEDTAVYYCARRGGLAARPGGMDVWGQGTTVTVSS VL: SYELTQPPSVSVSPGQTARITCSGDKLGDKYACWYQQKPGQSPVLVIYQNTKWPLGIPERFSGSKSGNTVTLTISGTQAMDEADYYCQAWDSSTVVFGGGTKLTVL
